In article PMC6056499, “A systematic dissection of sequence elements determining β-Klotho and FGF interaction and signaling” (Scientific Reports, 2018):

How the values were obtained:
[1] = molecular target: human β-Klotho extracellular domain (aa1–992) fused with a 6 × His tag at the C-terminus (UniProt Q86Z14); experiment: AlphaScreen; settings: parent: est. 1.0, read off a plot
mature human FGF21 = mature human FGF21 (UniProt Q9NSA1); experiment: solid-phase binding assay; settings: β-Klotho captured from conditioned media; parent: est. 1.0; read off a plot
[2] = competition with FGF19 for β-Klotho
[3] = competition with FGF21 for β-Klotho

Sequence of human β-Klotho extracellular domain (aa1–992) fused with a 6 × His tag at the C-terminus (Q86Z14 53-992): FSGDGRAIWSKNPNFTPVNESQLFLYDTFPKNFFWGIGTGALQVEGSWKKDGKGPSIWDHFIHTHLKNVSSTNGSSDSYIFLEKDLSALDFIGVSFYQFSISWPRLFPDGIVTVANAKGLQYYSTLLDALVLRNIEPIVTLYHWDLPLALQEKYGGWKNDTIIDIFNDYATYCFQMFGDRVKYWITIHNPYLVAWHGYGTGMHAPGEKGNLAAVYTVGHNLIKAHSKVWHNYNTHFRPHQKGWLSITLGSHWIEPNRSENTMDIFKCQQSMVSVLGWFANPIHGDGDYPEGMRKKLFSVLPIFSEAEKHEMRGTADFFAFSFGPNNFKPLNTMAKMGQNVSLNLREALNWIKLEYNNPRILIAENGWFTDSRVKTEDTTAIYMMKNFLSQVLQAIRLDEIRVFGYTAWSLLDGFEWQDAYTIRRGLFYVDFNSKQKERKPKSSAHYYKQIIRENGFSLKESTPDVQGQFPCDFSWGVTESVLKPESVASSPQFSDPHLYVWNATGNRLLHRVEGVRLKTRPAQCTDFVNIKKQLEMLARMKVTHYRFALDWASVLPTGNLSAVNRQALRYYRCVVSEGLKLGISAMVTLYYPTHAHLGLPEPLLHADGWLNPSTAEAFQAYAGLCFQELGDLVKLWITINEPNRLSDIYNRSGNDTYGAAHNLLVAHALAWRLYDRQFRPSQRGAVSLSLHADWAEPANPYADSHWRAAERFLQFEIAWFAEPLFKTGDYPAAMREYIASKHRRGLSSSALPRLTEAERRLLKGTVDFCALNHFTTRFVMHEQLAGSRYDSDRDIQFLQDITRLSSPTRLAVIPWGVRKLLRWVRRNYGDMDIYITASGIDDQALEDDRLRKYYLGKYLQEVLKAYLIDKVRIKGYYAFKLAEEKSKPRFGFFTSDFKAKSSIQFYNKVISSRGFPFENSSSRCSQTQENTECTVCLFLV
Sequence of FGF19 C-terminal peptide, WT FGF19^185–216 (from UniProt O95750) 209V-A (O95750 185-216, change not shown): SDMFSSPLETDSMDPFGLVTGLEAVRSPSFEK
Sequence of FGF19 C-terminal peptide, WT FGF19^185–216 (from UniProt O95750) 203V-A (O95750 185-216, change not shown): as above
Sequence of FGF19 C-terminal peptide, WT FGF19^185–216 (from UniProt O95750) 197M-A (O95750 185-216, change not shown): as above
Sequence of FGF19 C-terminal peptide, WT FGF19^185–216 (from UniProt O95750) 196S-A (O95750 185-216, change not shown): as above
Sequence of FGF19 C-terminal peptide, WT FGF19^185–216 (from UniProt O95750) 204T-A (O95750 185-216, change not shown): as above
Sequence of FGF19 C-terminal peptide, WT FGF19^185–216 (from UniProt O95750) 216K-A (O95750 185-216, change not shown): as above
Sequence of FGF19 C-terminal peptide, WT FGF19^185–216 (from UniProt O95750) 205G-A (O95750 185-216, change not shown): as above
Sequence of FGF19 C-terminal peptide, WT FGF19^185–216 (from UniProt O95750) 207E-A (O95750 185-216, change not shown): as above
Sequence of FGF19 C-terminal peptide, WT FGF19^185–216 (from UniProt O95750) 210R-A (O95750 185-216, change not shown): as above
Sequence of FGF19 C-terminal peptide, WT FGF19^185–216 (from UniProt O95750) 201G-A (O95750 185-216, change not shown): as above
Sequence of FGF19 C-terminal peptide, WT FGF19^185–216 (from UniProt O95750) 206L-A (O95750 185-216, change not shown): as above
Sequence of FGF19 C-terminal peptide, WT FGF19^185–216 (from UniProt O95750) 215E-A (O95750 185-216, change not shown): as above
Sequence of FGF19 C-terminal peptide, WT FGF19^185–216 (from UniProt O95750) 214F-A (O95750 185-216, change not shown): as above
Sequence of FGF19 C-terminal peptide, WT FGF19^185–216 (from UniProt O95750) 213S-A (O95750 185-216, change not shown): as above

Substance	ratio to parent [1, 2]	ratio to parent [1, 3]	ratio to parent (mature human FGF21)
FGF19 C-terminal peptide, WT FGF19^185–216 (from UniProt O95750) 203V-A	3.8	5.5	–
FGF19 C-terminal peptide, WT FGF19^185–216 (from UniProt O95750) 204T-A	1.6	3.2	–
FGF19 C-terminal peptide, WT FGF19^185–216 (from UniProt O95750) 209V-A	0.6	0.6	–
FGF19 C-terminal peptide, WT FGF19^185–216 (from UniProt O95750) 214F-A	220	–	–
FGF19 C-terminal peptide, WT FGF19^185–216 (from UniProt O95750) 215E-A	7	5.2	–
human β-Klotho extracellular domain (aa1–992) fused with a 6 × His tag at the C-terminus (from UniProt Q86Z14) 381P-A	–	–	5
human β-Klotho extracellular domain (aa1–992) fused with a 6 × His tag at the C-terminus (from UniProt Q86Z14) 389G-A	–	–	30
human β-Klotho extracellular domain (aa1–992) fused with a 6 × His tag at the C-terminus (from UniProt Q86Z14) 431T-R	–	–	10
human β-Klotho extracellular domain (aa1–992) fused with a 6 × His tag at the C-terminus (from UniProt Q86Z14) 437K-A	–	–	270
human β-Klotho extracellular domain (aa1–992) fused with a 6 × His tag at the C-terminus (from UniProt Q86Z14) 437K-R	–	–	5
human β-Klotho extracellular domain (aa1–992) fused with a 6 × His tag at the C-terminus (from UniProt Q86Z14) 531E-A	–	–	4.5
human β-Klotho extracellular domain (aa1–992) fused with a 6 × His tag at the C-terminus (from UniProt Q86Z14) 861R-A	–	–	15
human β-Klotho extracellular domain (aa1–992) fused with a 6 × His tag at the C-terminus (from UniProt Q86Z14) 862L-R	–	–	25

Next, values leading:

ratio to parent [1, 2]	ratio to parent [1, 3]	ratio to parent (mature human FGF21)	Substance
9.8	13	–	FGF19 C-terminal peptide, WT FGF19^185–216 (from UniProt O95750) 196S-A
0.8	0.3	–	FGF19 C-terminal peptide, WT FGF19^185–216 (from UniProt O95750) 197M-A
19	20	–	FGF19 C-terminal peptide, WT FGF19^185–216 (from UniProt O95750) 201G-A
1.3	1.4	–	FGF19 C-terminal peptide, WT FGF19^185–216 (from UniProt O95750) 205G-A
0.9	0.8	–	FGF19 C-terminal peptide, WT FGF19^185–216 (from UniProt O95750) 206L-A
0.6	1.1	–	FGF19 C-terminal peptide, WT FGF19^185–216 (from UniProt O95750) 207E-A
1.2	1.4	–	FGF19 C-terminal peptide, WT FGF19^185–216 (from UniProt O95750) 210R-A
90	–	–	FGF19 C-terminal peptide, WT FGF19^185–216 (from UniProt O95750) 213S-A
0.2	0.2	–	FGF19 C-terminal peptide, WT FGF19^185–216 (from UniProt O95750) 216K-A
–	–	35	human β-Klotho extracellular domain (aa1–992) fused with a 6 × His tag at the C-terminus (from UniProt Q86Z14) 380K-A
–	–	21	human β-Klotho extracellular domain (aa1–992) fused with a 6 × His tag at the C-terminus (from UniProt Q86Z14) 381P-R
–	–	3.5	human β-Klotho extracellular domain (aa1–992) fused with a 6 × His tag at the C-terminus (from UniProt Q86Z14) 389G-R
–	–	6	human β-Klotho extracellular domain (aa1–992) fused with a 6 × His tag at the C-terminus (from UniProt Q86Z14) 862L-A
